The results in this text go back to the Immune Epitope Database (IEDB).

Experiment [1] has as its target HLA-A*02:17. The experiment can be described thus: IEDB peptide-MHC binding, purified MHC/competitive/radioactivity; filed as Kd, often an IC50 or EC50 that approximates it; ≥ and ≤ were set here for values at or beyond the usual limits of such assays.
Experiment [2] addresses HLA-A*02:01. The experiment is described as above.
For experiment [3], the target named is HLA-A*02:03. Described as above.
In experiment [4] the target is HLA-A*02:06. The experiment is described as above.
The target of experiment [5] is HLA-A*03:01. The experiment can be described thus: IEDB peptide-MHC binding, purified MHC/competitive/fluorescence; ≥ and ≤ were set here for values at or beyond the usual limits of such assays.
Experiment [6] has as its target HLA-A*11:01. The experiment is described as above.
Experiment [7] concerns the target HLA-A*24:02. The description is as above.
The target in experiment [8] is HLA-A*02:01. The description is as above.
Experiment [9] addresses HLA-B*57:01. The experiment is described as follows: IEDB peptide-MHC binding, purified MHC/competitive/radioactivity; filed as Kd, often an IC50 or EC50 that approximates it; ≥ and ≤ were set here for values at or beyond the usual limits of such assays.
Experiment [10] deals with HLA-B*15:01. The experiment is described as follows: IEDB peptide-MHC binding, purified MHC/competitive/fluorescence; filed as Kd, often an IC50 or EC50 that approximates it; ≥ and ≤ were set here for values at or beyond the usual limits of such assays. To be noted: source organism: Homo sapiens.
Experiment [11] deals with HLA-B*57:01. The experiment is described as above. As to conditions: source organism: Homo sapiens.
Experiment [12] concerns the target HLA-B*27:03. Described as above. To be noted: source organism: Homo sapiens.
Experiment [13] addresses HLA-B*39:01. The experiment is described as above. To be noted: source organism: Homo sapiens.
For experiment [14], the target named is HLA-B*46:01. The description is as above. To be noted: source organism: Homo sapiens.
Experiment [15] has as its target HLA-B*51:01. The experiment is described as above. To be noted: source organism: Homo sapiens.
For experiment [16], the target named is HLA-A*69:01. The experiment is described as above. As to conditions: source organism: Homo sapiens.
Experiment [17] has as its target HLA-A*01:01. The experiment can be described thus: IEDB peptide-MHC binding, purified MHC/direct/fluorescence; filed as Kd, often an IC50 or EC50 that approximates it; ≥ and ≤ were set here for values at or beyond the usual limits of such assays. As to conditions: source organism: Homo sapiens.
For experiment [18], the target named is HLA-B*48:01. The experiment is described as above.
Experiment [19] deals with HLA-B*08:01. The experiment is described as follows: IEDB peptide-MHC binding, purified MHC/competitive/radioactivity; filed as Kd, often an IC50 or EC50 that approximates it; ≥ and ≤ were set here for values at or beyond the usual limits of such assays.
Experiment [20] addresses HLA-A*33:01. Described as above. To be noted: source organism: Vaccinia virus WR.
In experiment [21] the target is HLA-A*31:01. The experiment is described as above. As to conditions: source organism: Vaccinia virus WR.
The target of experiment [22] is HLA-A*68:01. Described as above. To be noted: source organism: Vaccinia virus WR.
In experiment [23] the target is HLA-A*69:01. The experiment is described as follows: IEDB peptide-MHC binding, purified MHC/direct/fluorescence; filed as Kd, often an IC50 or EC50 that approximates it; ≥ and ≤ were set here for values at or beyond the usual limits of such assays. As to conditions: source organism: dengue virus type 4.
The target of experiment [24] is HLA-A*32:01. The experiment is described as follows: IEDB peptide-MHC binding, purified MHC/competitive/radioactivity; filed as Kd, often an IC50 or EC50 that approximates it; ≥ and ≤ were set here for values at or beyond the usual limits of such assays.
The target of experiment [25] is HLA-A*68:02. The experiment is described as above. To be noted: source organism: Dengue virus 4 Philippines/H241/1956.
Experiment [26] concerns the target HLA-A*26:01. Described as above. As to conditions: source organism: Dengue virus 3 Martinique/1243/1999.
In experiment [27] the target is HLA-A*30:02. Described as above. To be noted: source organism: Dengue virus 3 Martinique/1243/1999.
For experiment [28], the target named is HLA-B*15:01. Described as above.
Experiment [29] addresses HLA-B*15:03. The experiment is described as above. As to conditions: source organism: Vaccinia virus WR.
The target in experiment [30] is HLA-A*30:01. The description is as above.
The target in experiment [31] is HLA-B*53:01. The experiment is described as above. As to conditions: source organism: Dengue virus 1 Brazil/97-11/1997.
Setting [32] is: source organism: Dengue virus 1 Nauru/West Pac/1974.
The mark [33] stands for this setting: source organism: Dengue virus 1 Brazil/97-11/1997.
Where [34] appears, read: source organism: Zaire ebolavirus.
[35] abbreviates: source organism: Dengue virus 2 Jamaica/1409/1983.
Where [36] appears, read: source organism: Dengue virus 4 Philippines/H241/1956.
Setting [37] is: source organism: Dengue virus 3 Martinique/1243/1999.
[38] abbreviates: source organism: Vaccinia virus Copenhagen.
Where [39] appears, read: source organism: Vaccinia virus.
Setting [40] is: source organism: Dengue virus 1 Singapore/S275/1990.
Where [41] appears, read: source organism: Sudan ebolavirus.
Where [42] appears, read: source organism: Vaccinia virus WR.

As to SLLFKTSAGV, the Kd – broadly, a measure of binding affinity in units of concentration – in experiment [1] (setting [32]) came out at 0.82 µM; in [2] (setting [32]) it was 0.0216 µM; in experiment [3] (setting [33]) it was 0.287 µM; in experiment [4] (setting [33]), 0.0358 µM.

Take DQEKKILMN: the IC50 (usually the point on the concentration scale where inhibition reaches its midpoint) in experiment [5] (setting [34]) is no less than 386 µM; in experiment [6] (setting [34]) it was no less than 193 µM; in [7] (setting [34]), no less than 303 µM.

As to GKRSNTTGK, the results for the IC50 in experiment [5] (setting [34]) and in experiment [8] (setting [34]) were 52.6 µM and no less than 14300 µM, respectively.

Take ILMGLDKGW: the Kd in experiment [9] (setting [33]) was determined as 0.049 µM.

For STHKLSLTK, the concentration for half-maximal inhibition (IC50) is 2.93 µM in experiment [5] (source organism: Variola virus), no less than 255 µM in [8] (source organism: Variola virus) and 0.193 µM in experiment [6] (source organism: Variola virus).

With NTAINFFLY, the Kd in experiment [10], in experiment [11], in [12], in [13], in experiment [14] and in [15] was no less than 20 µM in each case. Moreover, the results for the Kd in experiment [16] and in experiment [17] were no less than 20 µM and 0.0036 µM, respectively.

In the case of GIYIEGLMH, the IC50 was 16.1 µM in experiment [5] (setting [34]), no less than 180 µM in experiment [8] (setting [34]) and 9.23 µM in experiment [6] (setting [34]).

Consider FLDLPLPWL, for which the Kd came to 0.00946 µM in experiment [1] (setting [35]), 0.0103 µM in experiment [2] (setting [35]) and 0.127 µM in experiment [4] (setting [35]).

GQPIPIAGL came in with a Kd in [18] (source organism: Mycobacterium tuberculosis C) of 0.299 µM.

Turning to AVASGLLWV, the Kd turned out to be 3.3 µM in experiment [1] (setting [36]), 0.0189 µM in experiment [2] (setting [36]), 0.00189 µM in experiment [3] (setting [36]) and 0.0117 µM in experiment [4] (setting [36]).

Turning to ILLTAVAPSM, the Kd in experiment [19] (setting [35]) was 8.71 µM; in experiment [1] (setting [35]), 5.96 µM; in [2] (setting [35]) it was 2.49 µM.

For ITGGRRTRR, the IC50 in experiment [5] (setting [34]) is 6.85 µM; in experiment [8] (setting [34]) it was no less than 177 µM; in [6] (setting [34]), 9.09 µM.

On to FLNEDHWFS, for which the dissociation constant (Kd) in experiment [1] (setting [35]) amounted to 0.185 µM; in experiment [2] (setting [35]), 0.004 µM.

As to FLAHYIGTSL, the figures for the Kd in experiment [1] (source organism: Dengue virus 3 China/80-2/1980) and in experiment [3] (setting [37]) were 0.0225 µM and 0.0033 µM, respectively.

Turning to GLLCLTLFV, the Kd in experiment [1] (setting [36]) is 0.00847 µM; in experiment [2] (setting [36]), 0.00244 µM; in experiment [4] (setting [36]), 0.0164 µM.

KSISKSNAK: the figures for the Kd in [20], in experiment [21] and in experiment [22] were no less than 33.9 µM, 0.000454 µM and 0.101 µM, respectively. Further, the IC50 was 3.02 µM in experiment [5] (setting [38]) and 1.68 µM in [6] (setting [38]).

Turning to LRYLLFGIK, the IC50 in experiment [5] (setting [39]) was 15.4 µM; in experiment [8] (setting [39]), no less than 825 µM; in [6] (setting [39]), no less than 128 µM; in experiment [7] (setting [39]) it was 13.6 µM.

With IMAVGLVSL, the Kd in [1] (setting [36]) was 0.802 µM; in experiment [3] (setting [36]), 0.00016 µM; in experiment [23] it was no less than 20 µM.

For the sequence IMAVGMVSI, the Kd turned out to be 0.0204 µM in [24] (setting [35]), 0.785 µM in experiment [1] (setting [35]) and 0.00829 µM in [3] (setting [35]).

Consider TIMAVLFVV, for which the Kd worked out at 0.789 µM in [1] (setting [36]); 0.0926 µM in [2] (setting [36]); 0.0467 µM in [3] (setting [36]); 0.0434 µM in experiment [25]; 0.127 µM in experiment [4] (setting [36]).

In the case of KLARASFIEV, the Kd amounted to 0.705 µM in experiment [1] (setting [40]), 0.0149 µM in [2] (setting [40]), 0.0201 µM in experiment [3] (setting [33]) and 0.022 µM in experiment [4] (setting [33]).

On to IAIGIITLY, for which the Kd came to 0.00362 µM in experiment [9] (setting [37]), 0.013 µM in [26] and 2.68 µM in [27].

The sequence IKGTSGTEK gave an IC50 in experiment [5] (setting [39]) of no less than 187 µM.

RRYGGGLVR: in experiment [18] (source organism: West Nile virus), the Kd was no less than 20 µM.

Consider GLLFMILTV, for which the Kd in experiment [24] (setting [33]) was no less than 77.8 µM; in [1] (setting [40]), 14.3 µM; in experiment [2] (setting [40]), 0.0429 µM.

On to RISDRATRK, for which the IC50 was determined as 1.86 µM in experiment [5] (setting [41]) and 0.651 µM in experiment [6] (setting [41]).

Turning to ASLTPKAQR, the IC50 in [5] (source organism: Variola virus) amounted to 2.32 µM; in experiment [6] (source organism: Variola virus), 0.29 µM.

Turning to TMKEKSWLV, the Kd in experiment [1] (setting [40]) stood at 0.0403 µM; in experiment [2] (setting [40]), 0.0547 µM; in [3] (setting [33]), 0.0946 µM.

Take MLMFIFTGI: the dissociation constant Kd was 1.41 µM in experiment [28] (setting [42]); 1.45 µM in experiment [24] (setting [42]); 1.01 µM in experiment [29]; 0.265 µM in experiment [19] (setting [42]); 0.281 µM in experiment [30] (setting [42]).

As for IGIGILLTW, the Kd in [9] (setting [33]) came out at 0.272 µM; in [31] it was 5.45 µM.

YRNALSMMP registered a Kd in experiment [18] (source organism: Yellow fever virus) of no less than 20 µM.

LGFLNEDHW: the Kd in experiment [9] (source organism: Murray valley encephalitis virus (strain MVE-1-51)) is 0.172 µM.

On to LTSRDGEPRM, for which the Kd in experiment [9] (setting [37]) is 1.32 µM; in experiment [30] (setting [37]), 10.9 µM.

Turning to GLNTFTNMEV, the figures for the Kd in experiment [1] (setting [36]), in [2] (setting [36]) and in experiment [3] (setting [33]) were 0.421 µM, 0.00382 µM and 0.0153 µM, respectively.

As for HSFEEMYRH, the IC50 stood at 49.4 µM in experiment [5] (setting [34]) and 3.29 µM in experiment [6] (setting [34]).

For LMLLALIAVL, the Kd in [19] (setting [33]) came out at 2.25 µM; in experiment [1] (setting [40]), 2.17 µM; in experiment [2] (setting [40]) it was 0.0947 µM.

As for YQLAVTIMAI, the Kd in [28] (setting [35]) turned out to be 0.0158 µM; in experiment [1] (setting [35]), 7.84 µM; in experiment [2] (setting [35]) it was 0.0323 µM; in [3] (setting [35]), 0.0112 µM; in experiment [4] (setting [35]), 0.0113 µM.
